Data published in publication PMC5979025.

T1: C-reactive protein (pentameric, biotin-labeled) (Homo sapiens), P02741
T1 chain: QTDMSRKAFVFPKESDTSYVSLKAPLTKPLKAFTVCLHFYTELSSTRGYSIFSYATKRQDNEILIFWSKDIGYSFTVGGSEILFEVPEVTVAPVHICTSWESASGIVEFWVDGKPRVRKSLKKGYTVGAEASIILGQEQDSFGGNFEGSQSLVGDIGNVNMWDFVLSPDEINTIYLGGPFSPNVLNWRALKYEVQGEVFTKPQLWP


Assays:
[1] = biological target: C-reactive protein (pCRP) (Homo sapiens) (UniProt P02741); settings: cited from earlier work
[2] = biological target: T1, C-reactive protein (pentameric, …); assay: ELISA; settings: pCRP immobilized on hydrophobic surface, biotin-labeled solution pCRP, calcium required; remark: other sources report otherwise

Molecule | Kd [1] [µM] | Kd [2] [µM]
C-reactive protein (pCRP) (from UniProt P02741) | 20 | 
C-reactive protein (surface-immobilized intermediate, CRPi), P02741 (protein) QTDMSRKAFVFPKESDTSYVSLKAPLTKPLKAFTVCLHFYTELSSTRGYSIFSYATKRQDNEILIFWSKDIGYSFTVGGSEILFEVPEVTVAPVHICTSWESASGIVEFWVDGKPRVRKSLKKGYTVGAEASIILGQEQDSFGGNFEGSQSLVGDIGNVNMWDFVLSPDEINTIYLGGPFSPNVLNWRALKYEVQGEVFTKPQLWP |  | 0.0015
